Results taken from patent US20220194997A1 (published 2022).
Where no end group is shown, it is not given here.

T1: αsyn(35-45)
T1 peptide: EGVLYVGSKTK

T2: αsyn(87-95)
T2 peptide: SIAAATGFV

T3: αsyn(74-84)
T3 peptide: VTAVAQKTVEG

T4: αsyn(48-60)
T4 peptide: VVHGVATVAEKTK

T5: αsyn(59-66)
T5 peptide: TKEQVTNV


Assays:
Experiment in all cases: MST
[1] = target: human wild-type α-synuclein (full-length) (UniProt P37840 1-140)
αsyn(35-45) = target: T1, αsyn(35-45)
αsyn(87-95) = target: T2, αsyn(87-95)
αsyn(74-84) = target: T3, αsyn(74-84)
αsyn(48-60) = target: T4, αsyn(48-60)
αsyn(59-66) = target: T5, αsyn(59-66)
α-Synuclein-V40R/V49R = target: α-Synuclein-V40R/V49R
αSyn-SIM2(5A) = target: αSyn-SIM2(5A)
αSyn-SIM1(5A) = target: αSyn-SIM1(5A)

| Kd [1] | Kd (αsyn(35-45)) | Kd (αsyn(87-95)) | Kd (αsyn(74-84)) | Kd (αsyn(48-60)) | Kd (αsyn(59-66)) | Kd (α-Synuclein-V40R/V49R) | Kd (αSyn-SIM2(5A)) | Kd (αSyn-SIM1(5A)) | Binder |
| --- | --- | --- | --- | --- | --- | --- | --- | --- | --- |
| 2.32 µM |  |  |  |  |  |  |  |  | SSEIHFKVKMTTHLKKLKESYCQRQ [SUMO1(31-55)] |
|  | 1.19 µM | 364 µM | 195 µM | 0.87 µM | 108 µM | 88.3 µM | 0.86 µM | 19.6 µM | DKKEGEYIKLKVIGQDSSEIHFKVKMTTHLKKLKESYCQRQ (also: Alexa Fluor 647 NHS ester on amines when used as MST target) [SUMO1(15-55)] |
